Assay results reported in the supplement of paper PMC10724198.
± gives the standard deviation of the averaged measurements.

Tested on: Saccharomyces cerevisiae
Assay: protein stability index of tFT-peptide fusion (C-terminal peptide) (PSI (0-1 scale)); higher = more stable (slower turnover)
Details: genetic background: wild type; temperature: 30 C
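Also: PSI is a weighted mean of sequencing reads over stability bins, variants kept only with over 10 reads, mCherry proximal and sfGFP distal, peptide attached via GGGS linker.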

PPPPHTPPLPRS
protein stability index: 0.757 ± 0.048

PPPPLLPRTPPH
protein stability index: 0.54 ± 0.044

PPPPLLPSPFPP
protein stability index: 0.653 ± 0.031

PPPPLPATPGAS
protein stability index: 0.6857 ± 0.0018

PPPPLPPPPSPL
protein stability index: 0.653 ± 0.078

PPPPLPPRPPPP
protein stability index: 0.704 ± 0.026

PPPPLPRPPPPP
protein stability index: 0.615 ± 0.061

PPPPLSLPPVPL
protein stability index: 0.736 ± 0.012

PPPPLVPLPASP
protein stability index: 0.688 ± 0.072

PPPPPAPPALPP
protein stability index: 0.6734 ± 0.001

PPPPPAPPLSLP
protein stability index: 0.61 ± 0.01

PPPPPARPSVPP
protein stability index: 0.673 ± 0.077

PPPPPASPPSAP
protein stability index: 0.605 ± 0.063

PPPPPDAPRSSL
protein stability index: 0.7043 ± 0.0066

PPPPPHPALPVP
protein stability index: 0.734 ± 0.016

PPPPPIPRPPHA
protein stability index: 0.73 ± 0.03

PPPPPLPLCRRP
protein stability index: 0.756 ± 0.06

PPPPPLPLPPPF
protein stability index: 0.697 ± 0.023

PPPPPLPPAPPP
protein stability index: 0.558 ± 0.022

PPPPPLPPLPCP
protein stability index: 0.695 ± 0.03

PPPPPLPPPPTP
protein stability index: 0.652 ± 0.058

PPPPPLPPQLSH
protein stability index: 0.756 ± 0.011

PPPPPLPSPTPP
protein stability index: 0.735 ± 0.024

PPPPPLPTPPPS
protein stability index: 0.653 ± 0.036

PPPPPLSPPSLV
protein stability index: 0.725 ± 0.02

PPPPPPCSPATS
protein stability index: 0.747 ± 0.14

PPPPPPLPPPPL
protein stability index: 0.671 ± 0.019

PPPPPPLSVPPL
protein stability index: 0.695 ± 0.077

PPPPPPPHHSPP
protein stability index: 0.722 ± 0.047

PPPPPPPPPSPP
protein stability index: 0.704 ± 0.0066

PPPPPPPPPVLP
protein stability index: 0.675 ± 0.0081

PPPPPPPSLLLP
protein stability index: 0.828 ± 0.041

PPPPPPPTPPPP
protein stability index: 0.673 ± 0.014

PPPPPPRPLAPS
protein stability index: 0.679 ± 0.029

PPPPPPRPPSAH
protein stability index: 0.708 ± 0.087

PPPPPPRPPSSP
protein stability index: 0.694 ± 0.022

PPPPPPSLPPPS
protein stability index: 0.714 ± 0.015

PPPPPPSLPYLL
protein stability index: 0.771 ± 0.042

PPPPPPSPLTLP
protein stability index: 0.775 ± 0.086

PPPPPSAPSPLP
protein stability index: 0.665 ± 0.05

PPPPPSPPPPPH
protein stability index: 0.704 ± 0.0074

PPPPPYPPCIPL
protein stability index: 0.695 ± 0.048

PPPPRDPLPLPR
protein stability index: 0.677 ± 0.018

PPPPRPAPSAPY
protein stability index: 0.676 ± 0.045

PPPPRPASPGSP
protein stability index: 0.622 ± 0.065

PPPPRPLPLPTT
protein stability index: 0.751 ± 0.056

PPPPRPLPTSRP
protein stability index: 0.689 ± 0.012

PPPPRPPPALLP
protein stability index: 0.736 ± 0.021

PPPPRPPPQSPS
protein stability index: 0.724 ± 0.021

PPPPRRAPPPGT
protein stability index: 0.699 ± 0.021

PPPPRSPPHPLL
protein stability index: 0.69 ± 0.013

PPPPRSPVCLPL
protein stability index: 0.792 ± 0.011

PPPPSLPPPSRP
protein stability index: 0.7125 ± 0.0063

PPPPSPGPASPA
protein stability index: 0.716 ± 0.045

PPPPSTRPSYSP
protein stability index: 0.756 ± 0.23

PPPPTALPHPDL
protein stability index: 0.604 ± 0.012

PPPPTPHRSPLL
protein stability index: 0.598 ± 0.029

PPPPTQPPARPP
protein stability index: 0.68 ± 0.014

PPPPTRSRRNLP
protein stability index: 0.705 ± 0.047

PPPPVPPLYLPP
protein stability index: 0.684 ± 0.017

PPPRLAPTLLPA
protein stability index: 0.5999 ± 0.0046

PPPRPDPPSLLD
protein stability index: 0.545 ± 0.0085

PPPRPHTPPQLA
protein stability index: 0.708 ± 0.019

PPPRPPLALSPP
protein stability index: 0.646 ± 0.032

PPPRPPRPPCPF
protein stability index: 0.732 ± 0.059

PPPRPSPLSSSL
protein stability index: 0.678 ± 0.094

PPPRRPPSPPSP
protein stability index: 0.729 ± 0.021

PPPRTPGCPIPP
protein stability index: 0.5737 ± 0.0032

PPPSLPATPIPP
protein stability index: 0.656 ± 0.055

PPPSPAPCPPSS
protein stability index: 0.777 ± 0.043

PPPSPDPPLTPF
protein stability index: 0.723 ± 0.06

PPPSPFLPSPFR
protein stability index: 0.7066 ± 0.0061

PPPSPPPLPDPH
protein stability index: 0.697 ± 0.079

PPPSPPSPHAPP
protein stability index: 0.643 ± 0.1

PPPSRPLLPFPP
protein stability index: 0.706 ± 0.012

PPPSRTPPLNPR
protein stability index: 0.741 ± 0.096

PPPSSILSPSTS
protein stability index: 0.659 ± 0.046

PPPSSPPPLPLP
protein stability index: 0.681 ± 0.017

PPPTAPPTTTTR
protein stability index: 0.696 ± 0.055

PPPTAPSLSSPS
protein stability index: 0.688 ± 0.047

PPPTPPRPPPLP
protein stability index: 0.7059 ± 0.0022
